Values joined by “and” are separate entries in the source; they are usually repeats but may differ in a detail not shown here. Identical values can stand only once.

In general, koff refers to a measure of how fast the partners let go of each other. Higher therefore signals fast dissociation. A word on the Kd: it is the concentration at which binding is half-saturated. A low value points to tighter binding. By kon is commonly meant a measure of how fast the partners come together. Lower therefore signals slow association.

Assay [1] has as its target T1, MUC18-V5-His antigen (extracellular domain aa 1-559 of human MUC18 fused to V5-HIS) (human, UniProt P43121 24-559). Briefly: SPR (Biacore 3000), mAb captured on protein A, MUC18-V5-His in flow, 1:1 model; May 2001, chip I; exponent printed without its minus sign.
The target of assay [2] is T1, MUC18-V5-His antigen (extracellular …). Nature of the assay: SPR (Biacore 3000), mAb captured on protein A, MUC18-V5-His in flow, 1:1 model; November 2001, chip III; exponent printed without its minus sign. Background: In SPR one partner is held on a chip, and binding of the other changes the refractive index at the surface.
The target of assay [3] is T2, human MUC18 expressed by human melanoma cells (A375-SM, TXM-13, WM-2664) (human, UniProt P43121 24-646).
T2 construct: whole, on cells; also called MCAM; Mel-CAM
Nature of the assay: immunoblot of melanoma cell lysates (40 ug protein, 10% SDS-PAGE, denatured MUC18), anti-human IgG secondary, ECL. On the procedure: (§1) After overnight incubation, the plates were washed two times in PBS, and scraped in 400 μl Triton lysis buffer containing a cocktail of protease inhibitors plus DTT. Following centrifugation, the protein concentration was determined using a kit from BioRad. 40 μg of protein was loaded onto a 10% SDS-PAGE and electrophoretically transferred to a 0.45 -micron nitrocellulose membrane (Millipore). The membrane was incubated in buffer containing anti-MUC18 antibody overnight, reacted with a conjugated secondary antibody (Anti-human IgG) for one hour and the proteins were subsequently detected by the ECL (Amersham Corp) method according to the manufactures protocol.
On the technique in general: Immunoblotting shows a protein as a band on a membrane.

In assay [4] the target is T3, mouse MUC18 protein of normal (nude) mouse endothelial cells (mouse, UniProt Q8R2Y2 24-648).
T3 construct: whole, on cells; Tested as cell lysate on SDS-PAGE immunoblot, not on intact cells; also called NME; NME2 cells
T3 sequence (looked up): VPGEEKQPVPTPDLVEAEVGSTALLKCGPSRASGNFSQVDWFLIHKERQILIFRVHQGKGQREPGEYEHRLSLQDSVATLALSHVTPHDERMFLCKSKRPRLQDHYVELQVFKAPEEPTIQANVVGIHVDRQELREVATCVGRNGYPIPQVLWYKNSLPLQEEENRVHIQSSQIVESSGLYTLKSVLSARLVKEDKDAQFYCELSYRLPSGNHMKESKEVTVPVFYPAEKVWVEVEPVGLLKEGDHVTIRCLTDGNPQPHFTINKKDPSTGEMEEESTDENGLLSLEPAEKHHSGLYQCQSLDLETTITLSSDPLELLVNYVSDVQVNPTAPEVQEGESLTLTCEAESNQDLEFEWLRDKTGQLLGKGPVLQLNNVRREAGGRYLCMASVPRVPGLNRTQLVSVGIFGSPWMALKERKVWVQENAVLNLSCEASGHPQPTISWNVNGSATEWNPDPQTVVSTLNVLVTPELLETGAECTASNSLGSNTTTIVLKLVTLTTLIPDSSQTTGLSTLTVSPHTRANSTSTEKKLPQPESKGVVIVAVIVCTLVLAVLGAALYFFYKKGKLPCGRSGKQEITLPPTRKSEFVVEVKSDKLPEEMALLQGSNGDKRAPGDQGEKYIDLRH
Briefly: immunoblot of nude mouse endothelial cell lysate (40 ug protein, 10% SDS-PAGE), anti-human IgG secondary, ECL. On the procedure:
as §1

In assay [5] the target is T1, MUC18-V5-His antigen (extracellular …). Nature of the assay: SPR (Biacore 3000), mAb captured on protein A, MUC18-V5-His in flow, 1:1 model; October 2001, chip II.
The target is the same in assay [6]. Briefly: SPR (Biacore 3000), mAb captured on protein A, MUC18-V5-His in flow, 1:1 model; May 2001, chip I.
Assay [7] has the same target. Briefly: SPR (Biacore 3000), mAb captured on protein A, MUC18-V5-His in flow, 1:1 model; October 2001, chip II; exponent printed without its minus sign.
Assay [8] has the same target. Briefly: SPR (Biacore 3000), average of the seven measurements.
Assay [9] has the same target. Nature of the assay: SPR (Biacore 3000), mAb captured on protein A, MUC18-V5-His in flow, 1:1 model; November 2001, chip III.

B1: anti-MUC18 antibody c3.19.1 (antibody, human IgG2, V domains shown)
VH: QVQLQESGPGLVKPSETLSLTCTVSGGSISSYYWSWIRQPPGKGLEWIGYIYYTWTSNYNPSLKSRVTISVDTSKNQFSLRLSSVTAADTAVYYCARDQGQWLLPDAFDIWGQGTMVTVSS
VL: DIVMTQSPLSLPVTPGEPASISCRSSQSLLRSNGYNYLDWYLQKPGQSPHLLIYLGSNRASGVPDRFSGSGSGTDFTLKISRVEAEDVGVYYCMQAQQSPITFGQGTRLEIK
notes: also called ABX-MA1; MAb 3.19.1
Turning to B1, the koff in assay [1] is 0.000302 s⁻¹; in assay [2] it was 0.000347 s⁻¹ and 0.000385 s⁻¹ and 0.000402 s⁻¹ and 0.000389 s⁻¹; in assay [7] it was 0.000402 s⁻¹ and 0.000396 s⁻¹; in [8] it was 0.000375 s⁻¹. Moreover, the binding result in assay [3] was “binds”; in assay [4], “no binding”. Further, the Kd in [5] is 0.57 nM and 0.69 nM; in [6], 0.67 nM; in [8], 0.61 nM; in assay [9], 0.46 nM and 0.62 nM and 0.65 nM and 0.59 nM. Also, the kon was 709000 M⁻¹ s⁻¹ and 575000 M⁻¹ s⁻¹ in assay [5]; 453000 M⁻¹ s⁻¹ in assay [6]; 627000 M⁻¹ s⁻¹ in assay [8]; 749000 M⁻¹ s⁻¹ and 625000 M⁻¹ s⁻¹ and 615000 M⁻¹ s⁻¹ and 661000 M⁻¹ s⁻¹ in [9].
